Results reported in patent US20180155450A1 (Sanofi, published 2018).
Like-named read-outs stand apart in the source and are kept apart here.

T1: recombinant human IL4 (human, UniProt P05112 25-153)
T1 construct: bought
T1 sequence (looked up): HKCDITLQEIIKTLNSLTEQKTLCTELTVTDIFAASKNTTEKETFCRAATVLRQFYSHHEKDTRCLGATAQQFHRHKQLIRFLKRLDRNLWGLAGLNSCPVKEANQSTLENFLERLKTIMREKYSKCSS

T2: recombinant human IL4 (human, UniProt P05112 25-153)
T2 construct: bought; also called Antigen1
T2 sequence (looked up): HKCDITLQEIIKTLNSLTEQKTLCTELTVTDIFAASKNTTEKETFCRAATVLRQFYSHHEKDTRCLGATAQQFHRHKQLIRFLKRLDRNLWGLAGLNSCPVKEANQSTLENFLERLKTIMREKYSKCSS


What was measured:
recombinant human IL4 [1] = target: T1, recombinant human IL4; assay: SPR (Biacore 3000), antibody captured, antigen as analyte
Description: (§1) Kinetic binding analysis by Biacore was performed as follows. Surface plasmon resonance technology on a Biacore 3000 (GE Healthcare) was used for detailed kinetic characterization of purified antibodies. […] Chip surfaces were regenerated with 10 mM glycine pH 2.5. Kinetic parameters were analyzed and calculated in the BIAevaluation program package v4.1 using a flow cell without captured antibody as a reference.

recombinant human IL4 [2] = target: T1, recombinant human IL4; assay: cell-based or functional assay
recombinant human IL4 [3] = target: T1, recombinant human IL4; assay: SPR (Biacore 3000), antibody captured, antigen as analyte; remark: listed apart in the source
Description: as §1

recombinant human IL4 [4] = target: T1, recombinant human IL4; assay: cell-based or functional assay; remark: listed apart in the source
recombinant human IL4 [5] = target: T2, recombinant human IL4; assay: SPR (Biacore 3000), captured CODV-Ig, antigen as analyte;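 further: kd derived from kinetic fits in BIAevaluation 4.1, with signals referenced against a flow cell lacking captured antibody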
Description: as §1

recombinant human IL13 = target: T3, recombinant human IL13 (human, UniProt P35225 35-146, limits assumed); assay: as above
T3 construct: bought; also called Antigen2
T3 sequence (P35225 35-146 limits assumed): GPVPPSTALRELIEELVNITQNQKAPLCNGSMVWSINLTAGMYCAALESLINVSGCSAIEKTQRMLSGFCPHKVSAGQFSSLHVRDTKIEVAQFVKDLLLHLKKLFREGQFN
Description: as §1

Binder | Kd (recombinant human IL4 [3]) [nM] | IC50 Cellular Assay IL4 [nM] (HEK-Blue IL-4/IL-13 reporter cells, SEAP) (recombinant human IL4 [4]) | further results
CODV-Ig Batch ID 508 (IL4 × IL13 on HC; L1 HIDSPNK, L2 QRIEG, L3 V, L4 SL) (bispecific antibody) heavy: not shown light: DIVLTQSPASLAVSLGQRATISCRASESVDSYGQSYMHWYQQKAGQPPKLLIYLASNLESGVPARFSGSGSRTDFTLTIDPVQAEDAATYYCQQNAEDSRTFGGGTKLEIKHIDSPNKDIQMTQSPASLSVSVGDTITLTCHASQNIDVWLSWFQQKPGNIPKLLIYKASNLHTGVPSRFSGSGSGTGFTLTISSLQPEDIATYYCQQAHSYPFTFGGGTKLEIKQRIEGRTVAAPSVFIFPPSDEQLKSGTASVVCLLNNFYPREAKVQWKVDNALQSGNSQESVTEQDSKDSTYSLSSTLTLSKADYEKHKVYACEVTHQGLSSPVTKSFNRGEC |  |  | Kd (recombinant human IL4 [1]): 0.001 nM; IC50 Cellular Assay IL4 [nM] (HEK-Blue IL-4/IL-13 reporter cells, SEAP) (recombinant human IL4 [2]): 0.054 nM
CODV-Ig Batch ID 802 (Batch ID 204 with LC G114C, HC Q43C) (bispecific antibody, Engineered cysteine pair LC C114 (in L1) and HC C43, intended inter-chain disulfide., The mutation numbers are read as counts along the whole chain: G114C lies in L1 as printed; Q43C lies in the N-terminal anti-IL4 VH) heavy: not shown light: DIVLTQSPASLAVSLGQRATISCRASESVDSYGQSYMHWYQQKAGQPPKLLIYLASNLESGVPARFSGSGSRTDFTLTIDPVQAEDAATYYCQQNAEDSRTFGGGTKLEIKGGCGGGGDIQMTQSPASLSVSVGDTITLTCHASQNIDVWLSWFQQKPGNIPKLLIYKASNLHTGVPSRFSGSGSGTGFTLTISSLQPEDIATYYCQQAHSYPFTFGGGTKLEIKGGGGGRTVAAPSVFIFPPSDEQLKSGTASVVCLLNNFYPREAKVQWKVDNALQSGNSQESVTEQDSKDSTYSLSSTLTLSKADYEKHKVYACEVTHQGLSSPVTKSFNRGEC | 0.006 | 0.027 | 
CODV-Ig Batch ID 803 (Batch ID 204 with LC G115C, HC Q43C) (bispecific antibody, Engineered cysteine pair LC C115 (in L1) and HC C43, intended inter-chain disulfide., The mutation numbers are read as counts along the whole chain: G115C lies in L1 as printed; Q43C lies in the N-terminal anti-IL4 VH) heavy: not shown light: DIVLTQSPASLAVSLGQRATISCRASESVDSYGQSYMHWYQQKAGQPPKLLIYLASNLESGVPARFSGSGSRTDFTLTIDPVQAEDAATYYCQQNAEDSRTFGGGTKLEIKGGGCGGGDIQMTQSPASLSVSVGDTITLTCHASQNIDVWLSWFQQKPGNIPKLLIYKASNLHTGVPSRFSGSGSGTGFTLTISSLQPEDIATYYCQQAHSYPFTFGGGTKLEIKGGGGGRTVAAPSVFIFPPSDEQLKSGTASVVCLLNNFYPREAKVQWKVDNALQSGNSQESVTEQDSKDSTYSLSSTLTLSKADYEKHKVYACEVTHQGLSSPVTKSFNRGEC | 0.006 | 0.036 | 
CODV-Ig Batch ID 804 (Batch ID 204 with LC G116C, HC Q43C) (bispecific antibody, Engineered cysteine pair LC C116 (in L1) and HC C43, intended inter-chain disulfide., The mutation numbers are read as counts along the whole chain: G116C lies in L1 as printed; Q43C lies in the N-terminal anti-IL4 VH) heavy: not shown light: DIVLTQSPASLAVSLGQRATISCRASESVDSYGQSYMHWYQQKAGQPPKLLIYLASNLESGVPARFSGSGSRTDFTLTIDPVQAEDAATYYCQQNAEDSRTFGGGTKLEIKGGGGCGGDIQMTQSPASLSVSVGDTITLTCHASQNIDVWLSWFQQKPGNIPKLLIYKASNLHTGVPSRFSGSGSGTGFTLTISSLQPEDIATYYCQQAHSYPFTFGGGTKLEIKGGGGGRTVAAPSVFIFPPSDEQLKSGTASVVCLLNNFYPREAKVQWKVDNALQSGNSQESVTEQDSKDSTYSLSSTLTLSKADYEKHKVYACEVTHQGLSSPVTKSFNRGEC | 0.002 | 0.04 | 
CODV-Ig Batch ID 805 (Batch ID 204 with LC G117C, HC Q43C) (bispecific antibody, The mutation numbers are read as counts along the whole chain: G117C lies in L1 as printed; Q43C lies in the N-terminal anti-IL4 VH) heavy: not shown light: DIVLTQSPASLAVSLGQRATISCRASESVDSYGQSYMHWYQQKAGQPPKLLIYLASNLESGVPARFSGSGSRTDFTLTIDPVQAEDAATYYCQQNAEDSRTFGGGTKLEIKGGGGGCGDIQMTQSPASLSVSVGDTITLTCHASQNIDVWLSWFQQKPGNIPKLLIYKASNLHTGVPSRFSGSGSGTGFTLTISSLQPEDIATYYCQQAHSYPFTFGGGTKLEIKGGGGGRTVAAPSVFIFPPSDEQLKSGTASVVCLLNNFYPREAKVQWKVDNALQSGNSQESVTEQDSKDSTYSLSSTLTLSKADYEKHKVYACEVTHQGLSSPVTKSFNRGEC | 0.007 | 0.047 | 
CODV-Ig Batch ID 202 (IL4 × IL13 on HC; L1=5, L2=5, L3=1, L4=2) (bispecific antibody) chain 1: not shown chain 2: DIVLTQSPASLAVSLGQRATISCRASESVDSYGQSYMHWYQQKAGQPPKLLIYLASNLESGVPARFSGSGSRTDFTLTIDPVQAEDAATYYCQQNAEDSRTFGGGTKLEIKGGGGGDIQMTQSPASLSVSVGDTITLTCHASQNIDVWLSWFQQKPGNIPKLLIYKASNLHTGVPSRFSGSGSGTGFTLTISSLQPEDIATYYCQQAHSYPFTFGGGTKLEIKGGGGGRTVAAPSVFIFPPSDEQLKSGTASVVCLLNNFYPREAKVQWKVDNALQSGNSQESVTEQDSKDSTYSLSSTLTLSKADYEKHKVYACEVTHQGLSSPVTKSFNRGEC |  |  | Kd (recombinant human IL4 [5]): 0.009 nM; Kd (recombinant human IL13): 0.054 nM
CODV-Ig Batch ID 203 (IL4 × IL13 on HC; L1=7, L2=3, L3=1, L4=2) (bispecific antibody) chain 1: not shown chain 2: DIVLTQSPASLAVSLGQRATISCRASESVDSYGQSYMHWYQQKAGQPPKLLIYLASNLESGVPARFSGSGSRTDFTLTIDPVQAEDAATYYCQQNAEDSRTFGGGTKLEIKGGGGGGGDIQMTQSPASLSVSVGDTITLTCHASQNIDVWLSWFQQKPGNIPKLLIYKASNLHTGVPSRFSGSGSGTGFTLTISSLQPEDIATYYCQQAHSYPFTFGGGTKLEIKGGGRTVAAPSVFIFPPSDEQLKSGTASVVCLLNNFYPREAKVQWKVDNALQSGNSQESVTEQDSKDSTYSLSSTLTLSKADYEKHKVYACEVTHQGLSSPVTKSFNRGEC |  |  | Kd (recombinant human IL4 [5]): 0.08 nM; Kd (recombinant human IL13): 0.046 nM
